Assay [1] concerns the target T1, biotin-labeled human ADM (human, not fully specified; biotin label (named human ADM-C-biotin in Example 1.4; position of the biotin not stated for the other lots)).
T1 construct: Synthetic peptide; also called human ADM-C-biotin; hADM-Biotin
T1 peptide: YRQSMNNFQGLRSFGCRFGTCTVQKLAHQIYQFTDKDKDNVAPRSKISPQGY
The assay can be described thus: ELISA of E. coli culture supernatant of phage library monoclones. For orientation: An ELISA detects its analyte on a solid surface through an enzyme-linked reagent.

Assay [2] concerns the target T2, biotin-labeled mouse ADM (mouse, not fully specified; biotin label (named mouse ADM-C-biotin in Example 1.4; position of the biotin not stated for the other lots)).
T2 construct: Synthetic peptide; also called mouse ADM-C-biotin; mADM-Biotin
T2 peptide: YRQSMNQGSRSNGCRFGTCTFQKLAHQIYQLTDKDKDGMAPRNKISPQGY
Nature of the assay: BLI (Octet RED96e), biotinylated antigen on streptavidin sensor, antibody 100 nM, 1:1 fit. On the procedure: (§1) The affinity of the candidate antibody for biotin-labeled human ADM (human ADM-C-biotin for short, the sequence of human ADM is set forth in SEQ ID NO: 4) and mouse ADM (mouse ADM-C-biotin for short, the sequence of mouse ADM is set forth in SEQ ID NO: 5) was determined by adopting Octet RED96e (Fortebio). The antigens and antibody were all diluted with 1× PBST, the concentration of the antigen used was 2 μg/mL, and the working concentration of the antibody used was 100 nM.
(§2) First, the sample was added to a 96-well plate (Greiner bio-one, 655209) with a system of 200 μL/well. Software parameters were then set, the plate temperature was set to 30° C., and the standard kinetic signal was collected at a frequency of 5.0 HZ. Next, a streptavidin sensor (Fortébio, Cat. No. 18-5020) was pre-wetted with 1× PBST for 10 min and then tested on a machine. Each cycle included the following steps: 1) immersing the sensor in a buffer for 180 s to stabilize the baseline; 2) immobilizing the antigen for 10 s, allowing the antigen to bind to the sensor, and controlling the binding amount of the antigen between 0.5 nm and 1.0 nm; 3) immersing the sensor in the buffer for 180 s; 4) binding the antigen to the antibody for the binding time of 180 s; and 5) dissociating the antigen and the antibody for 10 min.
(§3) The equilibrium dissociation constant (KD) of the antibody was calculated by measuring the association rate (Kon) and the dissociation rate (Koff) of the antigen-antibody in a 1:1 binding manner by adopting the Data Analysis 12.0 software from Fortebio.

The target in assay [3] is T1, biotin-labeled human ADM. The description is as above. As to the method: as §1, §2, §3
Assay [4] concerns the target T3, 19 amino acid polypeptide at the N-terminus of mouse ADM (mouse).
T3 construct: Coated on the ELISA plate in the hybridoma screening; also called YY-19
T3 peptide: YRQSMNQGSRSNGCRFGTC
The assay can be described thus: ELISA, peptide coated at 1.0 ug/mL, hybridoma supernatant. As to the method:
(§4) YY-21 or YY-19 was diluted with PBS to 1.0 μg/mL, added to a 96-well plate (Corning, 9018), with 100 μL/well, and incubated at 4° C. overnight for coating. The ELISA plate was washed 3 times with a washing buffer (PBS+0.05% Tween 20) on an automatic plate washer the next day. 300 μL of a blocking buffer (PBS+0.05% Tween 20+1% BSA) was added to each well, and the plate was placed at room temperature for 1 h for blocking. The plate was then washed 3 times with the washing buffer on the automatic plate washer, and the hybridoma supernatant was added to each well of the ELISA plate. The plate was placed and incubated at room temperature for 1 h, and then washed 3 times according to the method described above. Goat Anti-mouse IgG Fc-HRP (Sigma, A0168) or Goat Anti-rat-IgG-HRP (Sigma, A5795) was diluted in 1:5000 with the blocking buffer, with 100 μL/well. The plate was placed and incubated at room temperature for 1 h. The plate was then washed 3 times according to the method described above. A TMB substrate solution was added with 100 μL/well and incubated at room temperature for 10 min, then 50 μL of 1.0 M hydrochloric acid was added to each well to terminate the reaction, and the plate was read by a microplate reader at OD₄₅₀ nm. […]

The target of assay [5] is T4, 21 amino acid polypeptide at the N-terminus of human ADM (human).
T4 construct: Coated on the ELISA plate in the hybridoma screening; also called YY-21
T4 peptide: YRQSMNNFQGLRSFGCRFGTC
The description is as above. As to the method: as §4

Broadly, the Kd is a measure of binding affinity in units of concentration. Read a high Kd as lower affinity. For orientation: koff means the rate constant with which the complex falls apart. A high value points to a short-lived complex. What is called kon is the second-order rate constant of association.

B1: monoclone 1F12 (from the fully human single-chain phage antibody library) (scFv, V domains shown)
VH: QVQLVQSGAEVKKPGASVKVSCKASGYTFTSYGISWVRQAPGQGLEWMGWISAYNGNTNYAQKLQGRVTMTRDTSTSTAYMELRSLRSDDTAVYYCAREGRSGGSFDIWGQGTMVTVSS
VL: DIQMTQSPSSLSASVGDRVTITCRASQGISSYLAWYQQKPGKAPKLLIYDASNLETGVPSRFSGSGSGTDFTFTISSLQPEDIATYYCQQYDNLPLTFGGGTKVEIK
notes: Tested as E. coli culture supernatant of a clone of a single-chain library
With B1, the binding result in assay [1] is recorded as “binds”.

B2: hybridoma clone 40E12 (antibody, V domains shown)
VH: QIQLVQSGPELRKPGETVKISCKASGYAFTTFGMSWIKQAPGQGLKWMGWINTYSRVPKYTDDFKGRFAFSLEISATTAYLLINNLKNGDTATYFCARGYGGEGGLGFSGQGTTLTVSS
VL: DVLMTQTPFSLPVSLGDQASISCRSSQSIIDSDGNTYLEWYLQKPGQSPKLLIYKVSNRFSGVPDRFSGSGSGTDFTLRISRVEAEDLGVYYCFQGSHFPYTFAGGTKLELK
notes: Murine hybridoma antibody purified on protein A; also called candidate antibody 40E12
In assay [2], B2 displayed an equilibrium dissociation constant (Kd) of 0.236 nM, a koff of 8.9e-05 s⁻¹ and a kon of 377000 M⁻¹ s⁻¹. Besides, in assay [3], the Kd was 0.314 nM, the koff is 0.000109 s⁻¹ and the kon amounted to 347000 M⁻¹ s⁻¹. For the same molecule, in assay [4], the binding result is reported as “binds”. Besides, the binding result in assay [5] is given as “binds”.

The values above are taken from patent publication US20260035456A1 (SHANGHAI JEYOU PHARMACEUTICAL, published 2026).
